Drawing on PMC2913408 (Biochemistry, 2010), this text covers Km, kcat and kcat/Km for one protein.

Substrate in data set [1]: O=C(O)/C=C/C=C(\O)C(=O)O
The experiment in a line: purified protein. It is filed as biochemical, Chloroflexus aurantiacus. As to conditions: 10 mM potassium phosphate, pH 7.3, 24 °C.

Substrate in data set [2]: O=C(O)/C(O)=C/c1ccccc1
The data set can be described thus: purified protein. As to conditions: 10 mM potassium phosphate, pH 7.3, 24 °C.

B1: hh4-OT (heterohexamer 4-oxalocrotonate tautomerase) (Chloroflexus aurantiacus J-10-fl) (protein)
chain 1: MLLLRITMLEGRSTEQKAELARALSAAAAAAFDVPLAEVRLIIQEVPPTHWTVGGISMAELRQQASTSTQGQ
chain 2: PMLEVFYSGDRPPDRTRKQAFAAEASAIFQRVIGTPPGRLQLIIQIVSPENTLAVIDLDRPDSDTTAEPDQQ
Regarding B1, in “purified protein [1]”, the Michaelis-Menten constant (Km) came to 70 ± 8 µM, the turnover number (kcat) was determined as 3000 ± 100 s⁻¹ and the kcat/Km worked out at 4.3e+07 M⁻¹ s⁻¹. In addition, in “purified protein [2]”, the Km was determined as 121 ± 20 µM, the turnover number (kcat) was found to be 13 s⁻¹ and the specificity constant (kcat/Km) came out at 110000 M⁻¹ s⁻¹.
